Assay results: patent US20240043563A1
Numbering of substitutions follows the chain as printed. Each block holds one binder with its values, some of them ahead of it.

Experiments:
[1] = target: Fc-hMASP-2A-CCS (human) [IgG part: P01857]; assay: ELISA, plate coated with 1 ug/mL Fc-hMASP-2A-CCS
[2] = target: Fc-hMASP-2A-CCS (human) [IgG part: P01857]; assay: ELISA according to Example 5, plate coated with Fc-hMASP-2A-CCS
MASP-2-CCS-Flag (human) = MASP-2-CCS-Flag (human) (UniProt O00187); assay: SPR, Biacore T200, antibody captured on Protein A chip, MASP-2-CCS-Flag as analyte
Sequence of MASP-2-CCS-Flag (human) (O00187 other isoform, or with tags, fused parts or gaps limits assumed, form in doubt): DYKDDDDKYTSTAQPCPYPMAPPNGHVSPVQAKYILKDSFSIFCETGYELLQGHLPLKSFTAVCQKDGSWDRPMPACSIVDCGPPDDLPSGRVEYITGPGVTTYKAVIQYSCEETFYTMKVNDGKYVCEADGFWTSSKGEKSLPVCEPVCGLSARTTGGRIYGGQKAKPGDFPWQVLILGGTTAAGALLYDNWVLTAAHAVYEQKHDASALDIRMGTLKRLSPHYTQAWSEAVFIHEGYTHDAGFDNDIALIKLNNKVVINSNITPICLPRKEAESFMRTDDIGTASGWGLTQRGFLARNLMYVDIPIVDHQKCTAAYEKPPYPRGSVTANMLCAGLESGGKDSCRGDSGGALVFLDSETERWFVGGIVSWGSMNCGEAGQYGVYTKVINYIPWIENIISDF

Sequence of Fc-hMASP-2A-CCS (human) [IgG part: P01857] (P01857 other isoform, or with tags, fused parts or gaps limits assumed, form in doubt): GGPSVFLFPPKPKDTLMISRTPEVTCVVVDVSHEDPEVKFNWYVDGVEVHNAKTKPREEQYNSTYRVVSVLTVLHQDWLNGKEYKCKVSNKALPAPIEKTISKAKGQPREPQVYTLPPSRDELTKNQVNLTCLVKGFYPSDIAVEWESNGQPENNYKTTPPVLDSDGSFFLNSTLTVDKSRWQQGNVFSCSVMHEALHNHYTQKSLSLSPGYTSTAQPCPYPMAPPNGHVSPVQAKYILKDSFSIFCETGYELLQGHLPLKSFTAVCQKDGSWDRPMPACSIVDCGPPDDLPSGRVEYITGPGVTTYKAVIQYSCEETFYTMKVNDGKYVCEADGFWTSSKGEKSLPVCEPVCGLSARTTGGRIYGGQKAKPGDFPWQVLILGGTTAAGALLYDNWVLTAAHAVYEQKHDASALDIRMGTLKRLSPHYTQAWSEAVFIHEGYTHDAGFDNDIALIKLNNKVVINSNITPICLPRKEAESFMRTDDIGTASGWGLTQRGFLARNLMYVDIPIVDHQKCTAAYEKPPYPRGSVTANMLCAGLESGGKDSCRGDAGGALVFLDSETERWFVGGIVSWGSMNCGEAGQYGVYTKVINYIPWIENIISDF

B3: humanized anti-human MASP-2 monoclonal antibody 100-Hu (antibody, human IgG4 S228P, kappa, V domains shown)
VH: QVQLVESGGGVVQPGGSLRLSCAASGFTFSNFGIHWVRQAPGKGLEWVAYISSGGSAVFYADTVKGRFTISRDNSKNTLYLQMNSLRAEDTAVYYCAKSDRYFDYWGQGTTVTVSS
VL: EIVLTQSPATLSLSPGERATLSCRASQSVSSSSYRYIHWYQQKPGQAPRLLIYYASNLESGIPARFSGSGSGTDFTLTISSLEPEDFAVYYCQHSWETPWTFGQGTKLEIKR
EC50 [2]: 0.297 nM
Kd (MASP-2-CCS-Flag (human)): 0.701 nM
koff (MASP-2-CCS-Flag (human)): 0.000298 s⁻¹
kon (MASP-2-CCS-Flag (human)): 428000 M⁻¹ s⁻¹

B7: humanized anti-human MASP-2 monoclonal antibody 126-Hu (antibody, human IgG4 S228P, kappa, V domains shown)
VH: QVQLVESGGGVVQPGRSLRLSCAASGFTFSSFGMHWVRQAPGKGLEWVAYISSGSSSSFYVDTVKGRFTISRDNSKNTLYLQMNSLRAEDTAVYYCARGDRNFEVWGQGTTVTVSS
VL: DIQMTQSPSSLSASVGDRVTITCRASQSVSSSRYSYMHWFQQKPGKAPKLLIYHASNLESGVPSRFSGSGSGTDFTLTISSLQPEDFATYYCQQSWEVPWTFGQGTKLEIKR
EC50 [2]: 0.246 nM
Kd (MASP-2-CCS-Flag (human)): 0.148 nM
fold affinity against the reference antibody Narsoplimab (MASP-2-CCS-Flag (human)): 60 times
koff (MASP-2-CCS-Flag (human)): 6.33e-05 s⁻¹
kon (MASP-2-CCS-Flag (human)): 428000 M⁻¹ s⁻¹

B8: humanized anti-human MASP-2 monoclonal antibody 136-Hu (antibody, human IgG4 S228P, kappa, V domains shown)
VH: QVQLVQSGAEVKKPGASVKVSCKASGNTFTNYWMHWIRQAPGQGLEWMGYINPNTGYTDFNQKFKDRVTLTADKSTSTAYMELSSLRSEDTAVYYCTLQLGRNFDYWGQGTTVTVSS
VL: B7 VL with Y34S, S35T, M37I, F40Y, H54Y, A55S, Q93H, V98I, W100Y
EC50 [2]: 0.26 nM
Kd (MASP-2-CCS-Flag (human)): 0.998 nM
koff (MASP-2-CCS-Flag (human)): 0.000589 s⁻¹
kon (MASP-2-CCS-Flag (human)): 590000 M⁻¹ s⁻¹

B11: humanized anti-human MASP-2 monoclonal antibody 124-Hu (antibody, human IgG4 S228P, kappa, V domains shown)
VH: QVQLQESGPGLVKPSQTLSLTCTVSGYSITSDYAWNWIRQPPGKGLEWMGYISYSGRTSYNPSLKSRLTISRDTSKNQFSLKLSSVTAADTAVYYCARHYGDFWGQGTTVTVSS
VL: DIQMTQSPSSLSASVGDRVTITCKASQNVDTNVAWYQQKPGKAPKLLIYSASYRYSGVPSRFSGSGSGTDFTLTISSLQPEDFATYYCQQYNSYPSTFGQGTKLEIKR
EC50 [2]: 0.25 nM
Kd (MASP-2-CCS-Flag (human)): 0.35 nM
fold affinity against the reference antibody Narsoplimab (MASP-2-CCS-Flag (human)): 25 times
koff (MASP-2-CCS-Flag (human)): 0.000582 s⁻¹
kon (MASP-2-CCS-Flag (human)): 1.66e+06 M⁻¹ s⁻¹

More lines, now with the values ahead:

EC50 [1]: 0.16 nM
B1: murine anti-human MASP-2 monoclonal antibody 120 (antibody, V domains shown)
VH: DVQLQESGPGLVKPSQSLSLTCTVTGYSITSDYAWSWIRQFLRNKLEWMGYISYSGRTSYNPSLKSRISITRDTSKNQFFLQLNSVTTEDTATYFCARLITGGDYWGQGTSVTVSS
VL: DIVMTQSQKFMSTSVGDRVSVTCKASQNVGINVVWYQQKPGQSPKALIYSASYRFSGVPDRFTGSGSGTDFTLTISNVQSEDLAEYLCLQYDINPLTFGAGTKLELK

EC50 [1]: 0.182 nM
B2: murine anti-human MASP-2 monoclonal antibody 124 (antibody, V domains shown)
VH: DVQLQESGPGLVKPSQSLSLTCTVTGYSITSDYAWNWIRQFPGNKLEWMGYISYSGRTSYNPSLKSRLSITRDTSKNQFFLQLTSVTTEDTATYYCARHYGDFWGQGTTLTVSS
VL: DIVMTQSQKFMSTSVGDRVSVTCKASQNVDTNVAWFQQKPGQSPKPLIYSASYRYSGVPDRFTGSGSGTDFTLTISNVQSEDLANYFCQQYNSYPSTFGSGTKLEIK

EC50 [1]: 0.173 nM
B4: murine anti-human MASP-2 monoclonal antibody 100 (antibody, V domains shown)
VH: B3 VH with Q1D, V11L, L18R, R19K, G42E, Y80F, N84T, A88S, V93I, V112L
VL: DIVLTQSPASLAVSLGQRATISCRASQSVSSSSYRYIHWYQQKPGQPPRLLIKYASNLESGVPARFSGSGSGTDFTLNIHPVEEEDTATYYCQHSWETPWTFGGGTKLEIK

EC50 [1]: 0.149 nM
B5: murine anti-human MASP-2 monoclonal antibody 60 (antibody, V domains shown)
VH: QVQLQQSGAELMKPGASVKISCKATGYPFSTYWIEWVKQRPGHGLEWIGEILPGSDNTNYNEKFKGKATFTADTSSNTAYMQLSSLTSEDSAVYYCARRTTATRAWFVYWGQGTLVTVSA
VL: DIVMSQSPSSLAVSVGEKVTMSCKSSQSLLYSSNQKNYLAWYQQKPGQSPKLLIYWASTRESGVPDRFTGSGSGTDFTLTISSVRAEDLAVYYCQHYYTYPWTFGGGTNLEIK

EC50 [1]: 0.143 nM
B6: murine anti-human MASP-2 monoclonal antibody 136 (antibody, V domains shown)
VH: QVQLQQSGAELAKPGASVKMSCKASGNTFTNYWMHWIKQRPGQGLEWVGYINPNTGYTDFNQKFKDKATLTADKSSTTAYMQLISLTSEDSTVYYCTLQLGRNFDYWGQGTTLTVSS
VL: DIVLTQSPASLGVSLGQRATISCRASQSVSSSRSTYIHWYQQKPGQPPKLLIKYSSNLESGVPARFSGGGSGTDFTLNIHPVEAEDTATYYCHQSWEIPYTFGGGTKLEIR

EC50 [1]: 0.151 nM
B9: murine anti-human MASP-2 monoclonal antibody 115 (antibody, V domains shown)
VH: DVQLVESGGGLVQPGGSRKLSCAASGFTFSSFGMHWVRQAPEKGLEWVAYISSGSSSFFYADTVKGRFTISRDNPKNTLFLQMTSLRSEDTAMYYCARGDRNFDVWGAGTTVTVSS
VL: B4 VL with S30T, S33R, R35S, I37M, Y40F, R49N, Y54H, E85D, T98V

EC50 [1]: 0.161 nM
B10: murine anti-human MASP-2 monoclonal antibody 126 (antibody, V domains shown)
VH: B9 VH with A23V, F58S, A61V, D104E
VL: B4 VL with S33R, R35S, I37M, Y40F, R49N, Y54H, H94Q, T98V
